According to patent US20160200782A1 (MOERAE MATRIX, published 2016):

T1: NEK3(h) (human, UniProt P51956 1-506, limits assumed)
T1 sequence (looked up): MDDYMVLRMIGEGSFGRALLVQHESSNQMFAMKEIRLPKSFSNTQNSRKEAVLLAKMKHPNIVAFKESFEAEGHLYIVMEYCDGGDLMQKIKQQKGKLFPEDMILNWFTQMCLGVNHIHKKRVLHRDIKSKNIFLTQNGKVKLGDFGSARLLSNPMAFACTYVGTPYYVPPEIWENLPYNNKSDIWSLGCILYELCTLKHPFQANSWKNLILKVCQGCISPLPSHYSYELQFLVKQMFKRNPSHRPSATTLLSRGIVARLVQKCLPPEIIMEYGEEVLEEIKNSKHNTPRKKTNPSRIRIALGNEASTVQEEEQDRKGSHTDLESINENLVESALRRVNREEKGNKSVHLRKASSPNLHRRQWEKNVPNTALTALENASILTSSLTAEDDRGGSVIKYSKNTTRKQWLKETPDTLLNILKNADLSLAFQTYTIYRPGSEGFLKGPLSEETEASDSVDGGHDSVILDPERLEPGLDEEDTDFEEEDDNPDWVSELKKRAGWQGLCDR

T2: NEK2(h) (human, UniProt P51955 1-445, limits assumed)
T2 sequence (looked up): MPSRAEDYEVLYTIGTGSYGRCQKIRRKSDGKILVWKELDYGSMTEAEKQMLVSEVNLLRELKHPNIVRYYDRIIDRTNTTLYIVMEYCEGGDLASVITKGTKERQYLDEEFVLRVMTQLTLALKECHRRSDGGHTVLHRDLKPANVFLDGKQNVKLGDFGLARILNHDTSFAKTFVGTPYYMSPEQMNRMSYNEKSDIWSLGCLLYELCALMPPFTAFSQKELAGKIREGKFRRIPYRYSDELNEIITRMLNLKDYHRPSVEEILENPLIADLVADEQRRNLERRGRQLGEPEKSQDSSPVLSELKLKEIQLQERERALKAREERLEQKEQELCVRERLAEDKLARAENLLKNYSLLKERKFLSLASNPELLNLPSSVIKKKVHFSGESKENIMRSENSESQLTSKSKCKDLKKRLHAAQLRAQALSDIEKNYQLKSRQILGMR

T3: Itk(h) (human, UniProt Q08881 1-620, limits assumed)
T3 sequence (looked up): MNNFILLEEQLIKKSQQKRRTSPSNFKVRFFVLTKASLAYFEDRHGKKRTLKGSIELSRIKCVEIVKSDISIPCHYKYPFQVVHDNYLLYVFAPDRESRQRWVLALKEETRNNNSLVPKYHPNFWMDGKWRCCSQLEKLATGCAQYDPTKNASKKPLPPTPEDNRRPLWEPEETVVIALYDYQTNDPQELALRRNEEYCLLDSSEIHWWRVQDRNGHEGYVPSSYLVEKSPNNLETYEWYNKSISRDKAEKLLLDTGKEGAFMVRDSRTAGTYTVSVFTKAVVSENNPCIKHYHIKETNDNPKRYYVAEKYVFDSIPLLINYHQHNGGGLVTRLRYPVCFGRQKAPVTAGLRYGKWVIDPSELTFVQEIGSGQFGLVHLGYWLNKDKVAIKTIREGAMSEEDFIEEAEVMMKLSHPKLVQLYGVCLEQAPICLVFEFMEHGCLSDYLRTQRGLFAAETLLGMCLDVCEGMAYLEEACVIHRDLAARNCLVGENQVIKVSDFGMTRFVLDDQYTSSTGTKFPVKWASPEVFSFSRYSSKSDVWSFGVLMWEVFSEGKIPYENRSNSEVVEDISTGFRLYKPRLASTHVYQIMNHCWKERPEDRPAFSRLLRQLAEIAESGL

T4: DRAK1(h) (human, UniProt Q9UEE5 1-414, limits assumed)
T4 sequence (looked up): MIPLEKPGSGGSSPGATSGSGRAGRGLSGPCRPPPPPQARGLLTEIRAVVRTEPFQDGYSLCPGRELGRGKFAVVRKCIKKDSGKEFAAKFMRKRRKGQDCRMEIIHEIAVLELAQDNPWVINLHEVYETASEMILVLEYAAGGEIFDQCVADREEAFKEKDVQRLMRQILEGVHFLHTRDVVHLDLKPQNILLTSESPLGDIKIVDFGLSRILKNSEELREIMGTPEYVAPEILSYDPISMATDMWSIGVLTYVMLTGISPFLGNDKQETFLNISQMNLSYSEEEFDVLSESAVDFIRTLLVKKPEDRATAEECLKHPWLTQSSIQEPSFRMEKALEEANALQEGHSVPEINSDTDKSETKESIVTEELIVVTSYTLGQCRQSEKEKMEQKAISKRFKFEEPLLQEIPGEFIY

T5: DCAMKL2(h) (human, UniProt Q8N568 372-766, limits assumed)
T5 sequence (looked up): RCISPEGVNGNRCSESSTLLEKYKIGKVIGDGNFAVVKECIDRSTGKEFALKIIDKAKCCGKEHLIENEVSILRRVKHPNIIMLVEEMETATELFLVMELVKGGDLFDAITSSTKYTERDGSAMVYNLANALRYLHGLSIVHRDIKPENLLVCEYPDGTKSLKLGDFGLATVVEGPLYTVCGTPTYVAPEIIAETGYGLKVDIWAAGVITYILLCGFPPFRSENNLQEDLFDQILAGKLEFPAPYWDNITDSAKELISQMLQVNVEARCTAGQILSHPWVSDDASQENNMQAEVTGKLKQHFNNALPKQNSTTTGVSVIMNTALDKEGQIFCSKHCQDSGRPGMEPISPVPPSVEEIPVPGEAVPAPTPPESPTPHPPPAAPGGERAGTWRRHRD


What was measured:
Assay in all cases: cell-based or functional assay
NEK3(h) = biological target: T1, NEK3(h)
CLK3(h) = CLK3(h) (human, UniProt P49761 1-490, limits assumed)
CLK3(h), sequence (P49761 whole entry): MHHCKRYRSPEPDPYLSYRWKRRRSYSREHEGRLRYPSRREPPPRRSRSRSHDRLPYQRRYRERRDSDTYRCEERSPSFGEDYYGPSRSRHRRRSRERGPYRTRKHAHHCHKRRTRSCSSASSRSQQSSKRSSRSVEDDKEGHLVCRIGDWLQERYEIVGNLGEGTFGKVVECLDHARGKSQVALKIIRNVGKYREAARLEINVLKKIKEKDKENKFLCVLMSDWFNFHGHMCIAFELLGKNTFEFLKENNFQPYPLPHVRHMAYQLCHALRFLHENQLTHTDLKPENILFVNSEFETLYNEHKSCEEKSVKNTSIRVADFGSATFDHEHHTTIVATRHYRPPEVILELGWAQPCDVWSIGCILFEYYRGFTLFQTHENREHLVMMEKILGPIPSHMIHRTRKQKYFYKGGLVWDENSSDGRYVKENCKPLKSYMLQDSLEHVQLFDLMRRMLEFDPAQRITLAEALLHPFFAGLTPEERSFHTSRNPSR

NEK2(h) = biological target: T2, NEK2(h)
VRK2(h) = VRK2(h) (human, UniProt Q86Y07 1-508, limits assumed)
VRK2(h), sequence (Q86Y07 whole entry): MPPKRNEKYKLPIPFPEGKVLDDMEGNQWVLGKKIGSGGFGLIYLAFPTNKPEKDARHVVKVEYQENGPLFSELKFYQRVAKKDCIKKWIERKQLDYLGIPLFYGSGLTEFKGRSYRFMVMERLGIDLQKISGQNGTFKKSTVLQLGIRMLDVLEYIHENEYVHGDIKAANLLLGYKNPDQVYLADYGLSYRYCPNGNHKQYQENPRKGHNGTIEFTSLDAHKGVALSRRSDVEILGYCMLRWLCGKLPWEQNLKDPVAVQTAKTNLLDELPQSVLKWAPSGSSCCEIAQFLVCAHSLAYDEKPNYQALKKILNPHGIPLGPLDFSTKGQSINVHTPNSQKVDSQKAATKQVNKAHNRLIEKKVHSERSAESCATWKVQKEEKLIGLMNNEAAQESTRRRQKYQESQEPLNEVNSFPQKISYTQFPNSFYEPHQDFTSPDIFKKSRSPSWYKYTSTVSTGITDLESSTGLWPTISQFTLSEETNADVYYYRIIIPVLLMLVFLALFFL

GSK3β(h) = GSK3β(h) (human, UniProt P49841 1-420)
GSK3β(h), sequence (P49841 whole entry): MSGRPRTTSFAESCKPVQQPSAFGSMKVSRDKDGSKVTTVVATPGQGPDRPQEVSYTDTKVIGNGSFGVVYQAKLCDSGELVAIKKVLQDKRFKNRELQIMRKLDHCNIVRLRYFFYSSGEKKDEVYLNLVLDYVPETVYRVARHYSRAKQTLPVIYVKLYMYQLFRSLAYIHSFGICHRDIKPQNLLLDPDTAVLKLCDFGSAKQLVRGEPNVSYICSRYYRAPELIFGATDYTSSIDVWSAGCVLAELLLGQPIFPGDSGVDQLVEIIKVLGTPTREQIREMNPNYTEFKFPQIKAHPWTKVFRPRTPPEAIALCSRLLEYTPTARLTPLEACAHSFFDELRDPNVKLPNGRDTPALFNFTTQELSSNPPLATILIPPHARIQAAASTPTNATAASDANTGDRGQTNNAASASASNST

Itk(h) = biological target: T3, Itk(h)
IR(h), activated = IR(h), activated (human, UniProt P06213 1005-1310, limits assumed)
IR(h), activated, sequence (P06213 1005-1310 limits assumed): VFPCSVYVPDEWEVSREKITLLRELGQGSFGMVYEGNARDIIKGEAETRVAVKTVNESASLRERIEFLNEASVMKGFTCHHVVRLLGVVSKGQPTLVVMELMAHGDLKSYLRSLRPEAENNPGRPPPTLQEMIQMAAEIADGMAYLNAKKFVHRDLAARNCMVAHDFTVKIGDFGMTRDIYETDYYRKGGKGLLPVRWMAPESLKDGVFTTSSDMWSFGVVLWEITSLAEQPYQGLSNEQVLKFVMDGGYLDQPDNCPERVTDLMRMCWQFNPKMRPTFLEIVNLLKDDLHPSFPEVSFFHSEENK

DRAK1(h) = biological target: T4, DRAK1(h)
Mnk2(h) = Mnk2(h) (human, UniProt Q9HBH9 1-465, limits assumed)
Mnk2(h), sequence (Q9HBH9 whole entry): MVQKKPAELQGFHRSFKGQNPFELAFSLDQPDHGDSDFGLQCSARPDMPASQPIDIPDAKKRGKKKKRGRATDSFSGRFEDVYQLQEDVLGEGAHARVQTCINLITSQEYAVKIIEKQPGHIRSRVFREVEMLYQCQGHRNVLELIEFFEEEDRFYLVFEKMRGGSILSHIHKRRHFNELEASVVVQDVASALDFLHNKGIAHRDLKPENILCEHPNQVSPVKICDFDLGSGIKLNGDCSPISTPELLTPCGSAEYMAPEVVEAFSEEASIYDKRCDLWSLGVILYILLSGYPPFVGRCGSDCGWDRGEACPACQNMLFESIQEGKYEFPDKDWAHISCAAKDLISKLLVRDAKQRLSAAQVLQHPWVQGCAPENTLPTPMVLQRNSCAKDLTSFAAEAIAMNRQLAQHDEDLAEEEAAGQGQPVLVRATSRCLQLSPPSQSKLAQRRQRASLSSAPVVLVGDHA

LIMK1(h) = LIMK1(h) (human, UniProt P53667 285-638, limits assumed)
LIMK1(h), sequence (P53667 285-638 limits assumed): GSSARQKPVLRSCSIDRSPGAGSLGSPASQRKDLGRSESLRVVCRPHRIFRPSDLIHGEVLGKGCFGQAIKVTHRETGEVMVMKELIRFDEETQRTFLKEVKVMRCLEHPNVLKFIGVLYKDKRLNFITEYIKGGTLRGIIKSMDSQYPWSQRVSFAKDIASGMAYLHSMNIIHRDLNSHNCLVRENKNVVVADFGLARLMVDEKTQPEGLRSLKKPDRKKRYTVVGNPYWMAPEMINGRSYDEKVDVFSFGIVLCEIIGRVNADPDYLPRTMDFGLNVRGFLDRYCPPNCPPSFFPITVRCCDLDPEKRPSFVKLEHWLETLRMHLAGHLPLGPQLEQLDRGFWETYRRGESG

ROCK-II(h) = ROCK-II(h) (human, UniProt O75116 11-552)
ROCK-II(h), sequence (O75116 11-552 limits assumed): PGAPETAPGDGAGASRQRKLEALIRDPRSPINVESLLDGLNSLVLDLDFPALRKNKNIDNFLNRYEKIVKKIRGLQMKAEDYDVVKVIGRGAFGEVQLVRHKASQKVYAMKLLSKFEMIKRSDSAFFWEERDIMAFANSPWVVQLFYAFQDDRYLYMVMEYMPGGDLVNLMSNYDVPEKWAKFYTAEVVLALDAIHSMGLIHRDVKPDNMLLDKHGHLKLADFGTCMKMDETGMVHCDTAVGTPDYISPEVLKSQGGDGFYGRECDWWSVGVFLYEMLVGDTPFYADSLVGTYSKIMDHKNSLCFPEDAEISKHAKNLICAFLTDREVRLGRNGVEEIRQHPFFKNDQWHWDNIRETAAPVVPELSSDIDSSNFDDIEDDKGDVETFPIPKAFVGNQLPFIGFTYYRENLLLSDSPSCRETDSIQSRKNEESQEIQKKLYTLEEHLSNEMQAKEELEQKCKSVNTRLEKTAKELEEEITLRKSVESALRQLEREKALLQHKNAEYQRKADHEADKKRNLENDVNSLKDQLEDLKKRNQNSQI

DCAMKL2(h) = biological target: T5, DCAMKL2(h)

Row | % activity (NEK3(h)) [%] | % activity (CLK3(h)) [%] | % activity (NEK2(h)) [%] | % activity (VRK2(h)) [%] | % activity (GSK3β(h)) [%] | % activity (Itk(h)) [%] | % activity (IR(h), activated) [%] | % activity (DRAK1(h)) [%] | % activity (Mnk2(h)) [%] | % activity (LIMK1(h)) [%] | % activity (ROCK-II(h)) [%] | % activity (DCAMKL2(h)) [%] | Binder
1 | 85 | 84 | 61 | 185 | 202 | 63 | 59 | 14 | 86 | 92 | 77 | 70 | KAFAKLAARLYRKALARQLGVAA [MMI-0400]
2 | 92 | 61 | 78 | 161 | 205 | 77 | 79 | 14 | 89 | 88 | 74 | 81 | FAKLAARLYRKALARQLGVAA [MMI-0300]
